Measured values published in the Immune Epitope Database (IEDB).

Tests used:
Assay in all cases: IEDB peptide-MHC binding, purified MHC/competitive/radioactivity; filed as Kd, often an IC50 or EC50 that approximates it; ≥ and ≤ were set here for values at or beyond the usual limits of such assays
HLA-A*31:01 = molecular target: HLA-A*31:01
HLA-A*03:01 = molecular target: HLA-A*03:01
HLA-A*11:01 = molecular target: HLA-A*11:01
HLA-A*33:01 = molecular target: HLA-A*33:01
HLA-A*68:01 = molecular target: HLA-A*68:01
[1] = source organism: Dengue virus 1 Brazil/97-11/1997
[2] = source organism: Mammarenavirus brazilense
[3] = source organism: Vaccinia virus WR
[4] = source organism: SARS coronavirus Tor2
[5] = source organism: Dengue virus 2 Jamaica/1409/1983
[6] = source organism: Dengue virus 4 Philippines/H241/1956
[7] = source organism: Mammarenavirus juninense
[8] = source organism: Dengue virus 3 Martinique/1243/1999
[9] = source organism: Mammarenavirus guanaritoense
[10] = source organism: Lassa virus Josiah
[11] = source organism: Mammarenavirus machupoense

Sequence	Kd (HLA-A*03:01; [3]) [µM]	Kd (HLA-A*11:01; [3]) [µM]	Kd (HLA-A*31:01; [3]) [µM]	Kd (HLA-A*33:01; [3]) [µM]	Kd (HLA-A*68:01; [3]) [µM]	other results
WQLMYFHRR	–	–	–	–	–	Kd (HLA-A*31:01; [1]): 4.41 µM
SVTLDFTKFH	–	–	–	–	–	Kd (HLA-A*03:01; [2]): 7.52 µM; Kd (HLA-A*11:01; [2]): 7.1 µM; Kd (HLA-A*31:01; [2]): 10.1 µM; Kd (HLA-A*33:01; [2]): 9.44 µM; Kd (HLA-A*68:01; [2]): 18.4 µM
SIYSRPKIK	0.00267	0.00662	4.89	≥ 37.9	0.398	–
FFRKLVLTNK	1.02	0.39	0.2	0.243	3.73	–
DLIVTFRERY	0.0351	0.0526	0.137	1.24	0.0235	–
SQIQLSLLK	–	–	–	–	–	Kd (HLA-A*03:01; [4]): 0.892 µM; Kd (HLA-A*11:01; [4]): 0.0292 µM; Kd (HLA-A*31:01; [4]): 18 µM; Kd (HLA-A*33:01; [4]): ≥ 77.7 µM; Kd (HLA-A*68:01; [4]): 6.27 µM
RICTREEFTR	–	–	–	–	–	Kd (HLA-A*31:01; [1]): ≥ 70 µM
SAVFKDSFLR	0.664	0.0459	0.0239	0.372	0.0182	–
VLKIVRNMEK	–	–	–	–	–	Kd (HLA-A*03:01; [5]): 0.0828 µM
SIPPTAGILK	–	–	–	–	–	Kd (HLA-A*03:01; [6]): 0.216 µM; Kd (HLA-A*11:01; [6]): 0.0165 µM
VSFLLLAGR	–	–	–	–	–	Kd (HLA-A*11:01; source organism: Mammarenavirus choriomeningitidis): 0.0179 µM
AISKLGINY	0.178	0.022	2.74	8.45	1.34	–
VMANNVKKK	0.0318	0.215	3.91	≥ 75.2	6.17	–
KYIHCFRKPH	–	–	–	–	–	Kd (HLA-A*03:01; [7]): ≥ 70 µM; Kd (HLA-A*11:01; [7]): ≥ 69.7 µM; Kd (HLA-A*31:01; [7]): 0.0127 µM; Kd (HLA-A*33:01; [7]): ≥ 46.1 µM; Kd (HLA-A*68:01; [7]): ≥ 70.1 µM
IIFLKLFKK	0.00876	0.00444	0.00567	0.00485	0.0132	–
LSSIKSKSRR	≥ 32.1	2.03	0.644	16.5	0.163	–
VVKLTAVCMK	0.115	0.121	0.208	2.68	0.723	–
TTGIGYQPYR	–	–	–	–	–	Kd (HLA-A*03:01; [4]): 6.45 µM; Kd (HLA-A*11:01; [4]): 1.14 µM; Kd (HLA-A*31:01; [4]): 0.105 µM; Kd (HLA-A*33:01; [4]): 1.74 µM; Kd (HLA-A*68:01; [4]): 0.0095 µM
LLLPSTDVNK	0.0411	0.0378	3.02	≥ 70	2.92	–
VSILASSLLR	–	–	–	–	–	Kd (HLA-A*11:01; [8]): 0.514 µM; Kd (HLA-A*31:01; [8]): 0.872 µM; Kd (HLA-A*33:01; [8]): 0.2 µM; Kd (HLA-A*68:01; [8]): 0.468 µM
AAVTLNRIK	≥ 34.8	4.76	9.3	≥ 27.1	3.16	–
RMLNILNRRR	–	–	–	–	–	Kd (HLA-A*31:01; [5]): 0.0016 µM

Sequence	Kd (HLA-A*03:01; [3]) [µM]	Kd (HLA-A*11:01; [3]) [µM]	Kd (HLA-A*31:01; [3]) [µM]	Kd (HLA-A*33:01; [3]) [µM]	Kd (HLA-A*68:01; [3]) [µM]	other results
IAARILSEK	0.0149	0.0135	4.55	4.87	0.0118	–
RTYSDPLALK	–	–	–	–	–	Kd (HLA-A*03:01; [8]): 0.00361 µM; Kd (HLA-A*11:01; [8]): 0.0361 µM; Kd (HLA-A*68:01; [8]): 0.0293 µM
VCEEFFHQK	–	–	–	–	–	Kd (HLA-A*03:01; [9]): 11.6 µM; Kd (HLA-A*11:01; [9]): 0.621 µM; Kd (HLA-A*31:01; [9]): ≥ 22.2 µM; Kd (HLA-A*33:01; [9]): ≥ 77.7 µM; Kd (HLA-A*68:01; [9]): 5.95 µM
QQLRVESSSK	–	–	–	–	–	Kd (HLA-A*03:01; [4]): 0.588 µM; Kd (HLA-A*11:01; [4]): 0.721 µM; Kd (HLA-A*31:01; [4]): 0.435 µM; Kd (HLA-A*33:01; [4]): 1.26 µM; Kd (HLA-A*68:01; [4]): 1.95 µM
TVKTNLYMK	3.68	0.0162	0.0817	6.32	0.104	–
KLTYQNKVVK	–	–	–	–	–	Kd (HLA-A*03:01; [8]): 0.0661 µM
LSARNKLFK	0.00221	0.000532	0.168	16.1	0.0149	–
SCPKPHRLNH	–	–	–	–	–	Kd (HLA-A*03:01; [10]): ≥ 21.3 µM; Kd (HLA-A*11:01; [10]): ≥ 69.7 µM; Kd (HLA-A*31:01; [10]): ≥ 38.5 µM; Kd (HLA-A*33:01; [10]): ≥ 34.3 µM; Kd (HLA-A*68:01; [10]): ≥ 70.1 µM
YTVEFDRDK	≥ 78	18.9	≥ 33.4	≥ 44.8	0.00125	–
LTMQRLLANH	–	–	–	–	–	Kd (HLA-A*03:01; [11]): 0.876 µM; Kd (HLA-A*11:01; [11]): 1.85 µM; Kd (HLA-A*31:01; [11]): 1.86 µM; Kd (HLA-A*33:01; [11]): 8.44 µM; Kd (HLA-A*68:01; [11]): 1.61 µM
ELNIVDEIIK	11.8	19	≥ 70	13.9	2.65	–
DTSEVHWNYK	–	–	–	–	–	Kd (HLA-A*68:01; [6]): 0.00673 µM
KSTVKLVQR	16.5	1.42	0.00444	1.48	1.53	–
LLFVVEVVDK	–	–	–	–	–	Kd (HLA-A*03:01; [4]): 4.39 µM; Kd (HLA-A*11:01; [4]): 3.05 µM; Kd (HLA-A*31:01; [4]): 6.56 µM; Kd (HLA-A*33:01; [4]): 6.08 µM; Kd (HLA-A*68:01; [4]): 1.33 µM
SAFNDDGIY	≥ 78	14	9.58	≥ 77.7	1.86	–
TSAYLISIFL	–	–	–	–	–	Kd (HLA-A*33:01; source organism: Lymphocytic choriomeningitis virus (strain WE)): 2.17 µM
EWIEFTNFK	–	–	–	–	–	Kd (HLA-A*03:01; [11]): 9.58 µM; Kd (HLA-A*11:01; [11]): 3.29 µM; Kd (HLA-A*31:01; [11]): 15.4 µM; Kd (HLA-A*33:01; [11]): 0.0667 µM; Kd (HLA-A*68:01; [11]): 0.00452 µM
ILIKRRQQK	–	–	–	–	–	Kd (HLA-A*03:01; source organism: Homo sapiens): 0.0289 µM
RTLGRNKKPR	–	–	–	–	–	Kd (HLA-A*31:01; [8]): 0.00839 µM
FTVKLGGVFH	–	–	–	–	–	Kd (HLA-A*03:01; [9]): 14.8 µM; Kd (HLA-A*31:01; [9]): 0.695 µM; Kd (HLA-A*33:01; [9]): 12.5 µM; Kd (HLA-A*68:01; [9]): 0.0274 µM
EIWTKEGER	–	–	–	–	–	Kd (HLA-A*33:01; [5]): 0.0479 µM
